Assay [1] concerns the target T1, Dimeric human CD48-mFc (human).
T1 chain: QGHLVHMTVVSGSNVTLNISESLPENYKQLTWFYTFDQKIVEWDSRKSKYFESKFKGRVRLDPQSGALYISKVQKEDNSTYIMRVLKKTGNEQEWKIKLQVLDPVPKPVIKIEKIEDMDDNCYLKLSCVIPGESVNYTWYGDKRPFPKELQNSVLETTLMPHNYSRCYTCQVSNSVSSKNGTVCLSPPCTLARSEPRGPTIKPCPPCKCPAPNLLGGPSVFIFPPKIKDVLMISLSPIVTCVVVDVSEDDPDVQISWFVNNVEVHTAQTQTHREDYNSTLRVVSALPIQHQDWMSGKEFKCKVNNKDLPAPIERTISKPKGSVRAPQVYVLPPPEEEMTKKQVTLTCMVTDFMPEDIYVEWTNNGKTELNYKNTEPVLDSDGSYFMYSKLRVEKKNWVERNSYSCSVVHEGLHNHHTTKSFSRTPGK
Put plainly: SPR (Biacore T100), 25 C, antibody captured by anti-Fc, dimeric CD48-mFc in solution. On the procedure: (§1) Measurements were conducted on a T100-2 BIACORE™ instrument (Biacore Life Sciences division of GE Healthcare, Piscataway, N.J.). Antibodies (either with mouse Fc [designated “H2M” or “H3M”] or human IgG4 Fc [designated “H4H”]) were captured through an anti-Fc chip surface, and CD48 was flowed over the surface either in a monomeric (soluble CD48 expressed with a myc-myc-hexa-histidine C-terminal tag [mmH]) or dimeric (soluble CD48 expressed with a C-terminal Fc fusion [mFc]) format.
(§2) The soluble CD48 was applied to the flow cell in separate injections at different concentrations, and kinetic association (kₐ) and dissociation (kd) rate constants were determined by fits to the kinetic binding data using Biacore software. Binding dissociation equilibrium constants and dissociation half-times were calculated from the kinetic rate constants as: KD=kd/kₐ; t_{1/2}=(ln 2/kd) (units: ka=M⁻¹*s⁻¹; kd=s⁻¹; KD=M; T½=min) (Tables 3-6).

The target of assay [2] is T2, Monomeric human CD48-mmH (human).
T2 construct: also called soluble CD48 expressed with a myc-myc-hexa-histidine C-terminal tag [mmH]
T2 chain: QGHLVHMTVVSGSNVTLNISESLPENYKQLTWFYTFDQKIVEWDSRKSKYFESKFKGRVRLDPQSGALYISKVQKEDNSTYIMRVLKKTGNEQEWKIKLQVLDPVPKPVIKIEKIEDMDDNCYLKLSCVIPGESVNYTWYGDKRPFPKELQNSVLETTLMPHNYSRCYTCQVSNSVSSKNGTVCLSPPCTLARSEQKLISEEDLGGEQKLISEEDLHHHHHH
The experiment in a line: SPR (Biacore T100), 25 C, antibody captured by anti-Fc, monomeric CD48-mmH in solution. On the procedure: as §1, §2
On the technique in general: In SPR one partner is held on a chip, and binding of the other changes the refractive index at the surface.

As a reminder, the Kd is the constant that tells how readily two partners part at equilibrium. A low value points to higher affinity. What is called koff is the rate constant with which the complex falls apart. Low values mean slow dissociation, high ones fast dissociation. In general, kon refers to a measure of how fast the partners come together.

B1: H4H1772P (antibody, human IgG4, V domains shown)
VH: EVQLVESGGGLVQPGGSLRLSCAASGFTFSSYWMSWVRQAPGKGLEWVANIMRDGSEKYYVDSVKGRFTISRDNAKNSLYLQMNSLRGEDTAVYYCARERGFYTNYGNWFDPWGQGTLVTVSS
VL: DIVMTQSPLSLTVTPGESASISCRSSQSLLHSYGYNSLDWYLQKPGQSPQFLIYLVSNRASGVPDRFSGSGSGTDFTLKISRVEAEDVGVYYCMQVLQTPYTFGQGTKLEIK
notes: Human IgG4 Fc (prefix H4H)
B1: in assay [1], binding was characterised by a dissociation constant (Kd) of 0.0344 nM, the T½ came to 14.9 h, the koff is 1.29e-05 s⁻¹ and the kon was 376000 M⁻¹ s⁻¹. Further, in assay [2], the Kd stood at 1.38 nM, the T½ was determined as 1.1 h, the koff came out at 0.000176 s⁻¹ and the kon came out at 127000 M⁻¹ s⁻¹.

B2: H2M1707N (antibody, mouse IgG2, V domains shown)
VH: EGQLLESGGGLAQPGGSLRLSCAASGITFGRYAMSWVRQAPGKGLEWVSLISGSGGSTYHADSVKGRFTISRDNSKNTLYLQMNSLRAEDTAVYYCAIYNNYNWFDPWGQGTLVTVSS
VL: EIVLTQSPGTLSLSPGERATLSCRASQSVSSNYLAWYQQKPGQAPRLLIYDASSRATDIPDRFSGSGSGTDFTLTISRLEPEDFAVYYCQQYGSSPRTFGQGTKVEIK
With B2, in assay [1], the Kd worked out at 0.0923 nM, the T½ was found to be 2.92 h, the koff turned out to be 6.59e-05 s⁻¹ and the on-rate (kon) came out at 714000 M⁻¹ s⁻¹. In assay [2], binding was put at a Kd of 4.92 nM, the T½ was determined as 0.3 h, the koff came out at 0.000642 s⁻¹ and the kon is 131000 M⁻¹ s⁻¹.

B3: H4H1707N (antibody, human IgG4, V domains shown)
VH: EGQLLESGGGLAQPGGSLRLSCAASGITFGRYAMSWVRQAPGKGLEWVSLISGSGGSTYHADSVKGRFTISRDNSKNTLYLQMNSLRAEDTAVYYCAIYNNYNWFDPWGQGTLVTVSS
VL: EIVLTQSPGTLSLSPGERATLSCRASQSVSSNYLAWYQQKPGQAPRLLIYDASSRATDIPDRFSGSGSGTDFTLTISRLEPEDFAVYYCQQYGSSPRTFGQGTKVEIK
notes: Human IgG4 Fc (prefix H4H)
In assay [1], B3 yielded a Kd of 0.0736 nM, a T½ of 6.8 h, a koff of 2.83e-05 s⁻¹ and a kon of 385000 M⁻¹ s⁻¹. In assay [2], the Kd turned out to be 3.57 nM, the T½ was 0.317 h, the koff turned out to be 0.000601 s⁻¹ and the kon is 168000 M⁻¹ s⁻¹.

B4: H4H1771P (antibody, human IgG4, V domains shown)
VH: QVQLVQSGTEVKKPGASVKVSCKVSGYTLIDLSIHWVRQAPGEGLEWMGGFDPEESETIYAQKFQGRVTMTEDTSTDTAYMELSSLRSEDTAVYYCVTEPIFGILIHESWGQGTLVTVSS
VL: DIVMTQTPLSSPVTLGQPASISCRSSHSPVHSNGHTYLSWLQQRPGQPPRILIYKISRRFSGVPDRFSGSGAGTDFTLKISRVETEDVGIYYCMQASQFPWTFGQGTKVEIK
notes: Human IgG4 Fc (prefix H4H)
For the molecule B4, in assay [1], the Kd came to 0.00736 nM, the T½ turned out to be 12.7 h, the koff is 1.52e-05 s⁻¹ and the kon amounted to 2.07e+06 M⁻¹ s⁻¹. In assay [2], this molecule gave a Kd of 0.26 nM, a T½ of 0.917 h, a koff of 0.000209 s⁻¹ and a kon of 805000 M⁻¹ s⁻¹.

B5: H3M1766N (antibody, V domains shown)
VH: EVQLVESGGGLAQPGGSLRLSCAASGFTFSSYEMNWVRQAPGKGLEWVSYITTSGSTIYYADSVKGRFTMSRDNAKKSLYLEMNSLRAEDTAVYYCAREECTNGVCYKDYQYYGMDVWGQGTTVTVSS
VL: DIQMTQSPSSVSASVGDRVTITCRASQNINTWLAWYQQKPGKVPKLLIYAASSLQSGVPSRFSGSGSGTDFTLTISSLQPEDFATYYCQQANSFPLTFGGGTKVEIK
notes: also called H2M1766N
In assay [1], B5 returned a Kd of 0.51 nM, a T½ of 2.93 h, a koff of 6.57e-05 s⁻¹ and a kon of 129000 M⁻¹ s⁻¹. For the same molecule, in assay [2], the affinity, expressed as Kd, was 2.79 nM; the T½ was 1.08 h; the koff came to 0.000177 s⁻¹; the kon worked out at 63400 M⁻¹ s⁻¹.

B6: H4H1781P (antibody, human IgG4, V domains shown)
VH: QVQLVESGGGVVQPGRSLRLSCAASGFTFSNYGMHWVRQAPGKGLEWVAVIWYDDSNKNYADSVKGRFTISRDNSKNTLYLQMNSLRVEDTAVYYCARDRWTYSHFFEYWGQGTLVTVSS
VL: DIQMTQSPSSVSASVGDRVTITCRASQGISSWLAWYQQKPGKAPNLLIYAASSLQSGVPSRFGGSGSGTDFSLTISGLQPEDFATYYCQQANSFPRTFGQGTKVEIK
notes: Human IgG4 Fc (prefix H4H)
In assay [1], B6 returned a Kd of 0.0144 nM, a T½ of 15.7 h, a koff of 1.23e-05 s⁻¹ and an on-rate (kon) of 854000 M⁻¹ s⁻¹. For the same molecule, in assay [2], the affinity, expressed as Kd, was 0.194 nM; the T½ is 5.85 h; the koff is 3.3e-05 s⁻¹; the kon turned out to be 170000 M⁻¹ s⁻¹.

B7: H4H1778P (antibody, human IgG4, V domains shown)
VH: QVQLVESGGGVVQPGRSLRLSCAASGFTFSNYGMHWVRQAPGKGLEWVAVIWYDESSKYYTDSVKGRFTISRDNSQNTLYLQMTSLRAEDTAVYYCARDRWTYSHYFEYWGQGTLVTVSS
VL: DIQMTQSPSSVSASVGDRVTITCRASQGISSWVAWYQQKPGKAPKLLIYAASSLQSGVPSRFSGSGSGTDFTLTISSLQPEDFATYYCQQANSFPRTFGQGTKVEIK
notes: Human IgG4 Fc (prefix H4H)
Turning to B7, in assay [1], the Kd came out at 0.0304 nM, the T½ is 21.5 h, the koff worked out at 8.95e-06 s⁻¹ and the kon came out at 294000 M⁻¹ s⁻¹. In assay [2], this molecule returned a Kd of 0.476 nM, a T½ of 4.1 h, a koff of 4.69e-05 s⁻¹ and a kon of 98600 M⁻¹ s⁻¹.

B8: H4H1774P (antibody, human IgG4, V domains shown)
VH: QVQLVESGGGVVQPGRSLRLSCAASGFTFSNYGMHWVRQAPGKGLEWVAVIWYDESSKYYTDSVKGRFTISRDNSQNTLYLQMTSLRAEDTAVYYCARDRWTYSHYFEYWGQGTLVTVSS
VL: DIQMTQSPSSVSASVGDRVTITCRASQGISSWVAWYQQKPGKAPKLLIYAASSLQSGVPSRFSGSGSGTDFTLTISSLQPEDFATYYCQQANSFPRTFGQGTKVEIK
notes: Human IgG4 Fc (prefix H4H)
As to B8, in assay [1], the Kd was determined as 0.0149 nM, the T½ was determined as 41.4 h, the koff was found to be 4.65e-06 s⁻¹ and the kon turned out to be 311000 M⁻¹ s⁻¹. Besides, in assay [2], the Kd is 0.454 nM, the T½ worked out at 4.08 h, the koff turned out to be 4.72e-05 s⁻¹ and the kon came to 104000 M⁻¹ s⁻¹.

B9: H4H1770P (antibody, human IgG4, V domains shown)
VH: QVQLVQSGAEVKKPGAAVKVSCKASGYTFTAYGISWVRQAPGQGLEWMGWISAYDGDTNNAQKFQGRVTMTTDTSSSTAYMELRSLGSDDTAVYYCARDRYSSSSGYFDYWGQGTLVTVSS
VL: DIQMTQSPSSVSASVGDRVTITCRASQDISSWLAWSQQKPGKAPKALIYAASSLQSGVPSRFSGSGSGTDFTLTISSLQPEDFATYYCQQANSFPYTFGQGTKLEIK
notes: Human IgG4 Fc (prefix H4H)
Turning to B9, in assay [1], the Kd was 0.00325 nM, the T½ amounted to 34.7 h, the koff was determined as 5.54e-06 s⁻¹ and the kon stood at 1.71e+06 M⁻¹ s⁻¹. Moreover, in assay [2], the Kd was determined as 0.259 nM, the T½ worked out at 1.27 h, the koff is 0.000153 s⁻¹ and the kon is 589000 M⁻¹ s⁻¹.

B10: H4H1779P (antibody, human IgG4, V domains shown)
VH: QVQLVESGGGVVQPGRSLRLSCAASGFTFSNYGMHWVRQAPGKGLEWVAVIWYDESSKHYADSVKGRFTISRDNSQNTLYLQMTSLRAEDTAVYYCARDRWTYSHYFEYWGQGTLVTVSS
VL: DIQMTQSPSSVSASVGDRVTITCRASQDISSWVAWYQQKPGKAPKLLIYAASSLQSGVPSRFSGSGSGTDFTLTISSLQPEDFATYYCQQANSFPRTFGQGTKVEIK
notes: Human IgG4 Fc (prefix H4H)
As to B10, in assay [1], binding was characterised by a dissociation constant (Kd) of 0.0151 nM, the T½ is 16.5 h, the koff worked out at 1.17e-05 s⁻¹ and the kon came to 774000 M⁻¹ s⁻¹. In assay [2], the Kd was found to be 0.246 nM, the T½ was determined as 4.93 h, the koff amounted to 3.9e-05 s⁻¹ and the kon was 158000 M⁻¹ s⁻¹.

B11: H4H1775P (antibody, human IgG4, V domains shown)
VH: QVQLVESGGGVVQPGRSLRLSCAASGFTFSNYGMHWVRQAPGKGLEWVAVIWYDESGKHYADSVKGRFTISRDNSQNTLYLQMTSLRAEDTAVYYCARDRWTYSHYFEYWGQGTLVTVSS
VL: DIQMTQSPSSVSASVGDRVTITCRASQDISSWVAWYQQKPGKAPKLLIYAASSLQSGVPSRFSGSGSGTDFTLTISSLQPEDFATYYCQQANSFPRTFGQGTKVEIK
notes: Human IgG4 Fc (prefix H4H)
As for B11, in assay [1], binding was characterised by a dissociation constant (Kd) of 0.0179 nM, the T½ is 14.7 h, the dissociation rate constant (koff) is 1.31e-05 s⁻¹ and the kon was determined as 734000 M⁻¹ s⁻¹. In assay [2], this molecule gave a Kd of 0.34 nM, a T½ of 3.92 h, a koff of 4.92e-05 s⁻¹ and a kon of 145000 M⁻¹ s⁻¹.

These data come from patent US20130230533A1 (Regeneron, published 2013).
